{"source": "paper PMC7618050", "about": "“Structure of the Bacteriophage PhiKZ non-virion RNA Polymerase transcribing from its promoter p119L”", "target": "PhiKZ nvRNAP GP55 (beta'-like);PhiKZ nvRNAP GP74 (beta'-like);PhiKZ nvRNAP GP71-73 (beta-like);PhiKZ nvRNAP … (Pseudomonas phage phiKZ;Pseudomonas …, UniProt Q8SDA7;Q8SD88;PDB:8QUE_2;Q8SD39;Q8SD94 1-420;1-677;1-700;1-543;1-521, ||||)", "experiment": "cryo-EM structure (3.3 A); 10 mM MgCl2; 1 mM ATP, CTP, GTP, no UTP; Zn2+ in GP55; 40 mM Tris-Cl pH 8.0, 10 mM MgCl2, 5 mM DTT, 1 mM ATP/CTP/GTP, 30 min at 37 C, nvRNAP 0.1 mg/mL with scaffold 1:1; native PAGE 4-20% TGX at 4 C", "conditions": "protein: recombinant;recombinant;recombinant;recombinant;recombinant; tags: ;;;;; copies: 1;1;1;1;1; label: Cy5 at 5' end of RNA (printed Cy5-GUAGA); non-template/template DNA with mismatched bubble; RNA hybrid with template (6 bp resolved)"}
{"binder": "p119L RNA/DNA template with RNA extended by 3 nt (mixed) DNA 1: AGTAATTTTAGTGAATGTATTTGCTATATTGCTATCCTAACAGTTCCCAAAAGCCTAAAGTTACAATATAGGTAC DNA 2: GTACCTATATTGTAACTTTAGGCTTTTGGGAACTGTCTACATAGCAATATAGCAAATACATTCACTAAAATTACT RNA: GUAGACAG", "values": [{"measurement": "binding result", "value": "binds"}]}
